Experimental findings from PMC7005798 (2020) are described below.

In this assay the target is C3b (human, UniProt P01024 23-667; P01024 749-1663). The experiment in a line: SPR.
C3b, sequence (P01024 23-667, chain 1 of 2): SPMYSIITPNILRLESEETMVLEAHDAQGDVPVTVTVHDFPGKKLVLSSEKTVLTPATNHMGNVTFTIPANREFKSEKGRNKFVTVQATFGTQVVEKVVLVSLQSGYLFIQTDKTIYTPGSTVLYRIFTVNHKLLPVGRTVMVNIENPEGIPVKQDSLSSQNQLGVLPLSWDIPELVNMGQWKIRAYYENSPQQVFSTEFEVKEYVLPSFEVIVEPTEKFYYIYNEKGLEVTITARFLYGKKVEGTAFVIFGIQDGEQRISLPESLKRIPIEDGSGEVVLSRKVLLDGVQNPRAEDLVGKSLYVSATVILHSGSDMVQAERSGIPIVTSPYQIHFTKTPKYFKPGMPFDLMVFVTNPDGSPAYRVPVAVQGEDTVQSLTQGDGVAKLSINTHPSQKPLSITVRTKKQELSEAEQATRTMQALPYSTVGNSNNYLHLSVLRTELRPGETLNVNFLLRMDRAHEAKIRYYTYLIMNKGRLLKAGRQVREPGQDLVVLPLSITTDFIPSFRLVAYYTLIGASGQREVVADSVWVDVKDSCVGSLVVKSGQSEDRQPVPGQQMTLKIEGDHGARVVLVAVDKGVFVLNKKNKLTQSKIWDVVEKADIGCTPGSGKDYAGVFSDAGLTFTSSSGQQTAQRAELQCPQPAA
C3b, sequence (P01024 749-1663, chain 2 of 2): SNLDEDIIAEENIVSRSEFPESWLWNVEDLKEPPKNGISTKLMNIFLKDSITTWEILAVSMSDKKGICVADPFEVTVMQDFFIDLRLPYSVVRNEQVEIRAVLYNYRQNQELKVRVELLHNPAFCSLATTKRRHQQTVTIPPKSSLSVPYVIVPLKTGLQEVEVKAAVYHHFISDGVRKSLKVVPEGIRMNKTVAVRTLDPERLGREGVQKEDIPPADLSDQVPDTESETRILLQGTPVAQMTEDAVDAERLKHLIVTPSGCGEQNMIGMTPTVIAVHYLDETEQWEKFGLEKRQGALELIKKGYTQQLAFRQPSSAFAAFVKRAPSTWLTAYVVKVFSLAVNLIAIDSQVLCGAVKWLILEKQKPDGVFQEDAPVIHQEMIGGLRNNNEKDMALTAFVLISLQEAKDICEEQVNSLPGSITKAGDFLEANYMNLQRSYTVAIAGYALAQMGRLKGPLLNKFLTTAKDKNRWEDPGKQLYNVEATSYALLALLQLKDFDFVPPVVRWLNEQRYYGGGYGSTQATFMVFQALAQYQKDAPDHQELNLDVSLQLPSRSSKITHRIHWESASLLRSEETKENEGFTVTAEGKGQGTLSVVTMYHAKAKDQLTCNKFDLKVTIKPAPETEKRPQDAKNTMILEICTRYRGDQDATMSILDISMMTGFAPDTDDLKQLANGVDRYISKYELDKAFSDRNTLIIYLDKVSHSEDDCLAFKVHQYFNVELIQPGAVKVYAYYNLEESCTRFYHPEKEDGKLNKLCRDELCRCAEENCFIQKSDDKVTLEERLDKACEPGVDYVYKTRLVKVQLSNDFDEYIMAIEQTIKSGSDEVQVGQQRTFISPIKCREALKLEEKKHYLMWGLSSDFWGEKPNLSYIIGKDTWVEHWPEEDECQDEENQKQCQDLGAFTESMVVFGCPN

B1: Recombinant Factor H-Related Protein 4 (FHR-4), FHR-4B variant (natural protein)
chain: EVKPCDFPEIQHGGLYYKSLRRLYFPAAAGQSYSYYCDQNFVTPSGSYWDYIHCTQDGWSPTVPCLRTCSKSDIEIENGFISESSSIYILNKEIQYKCKPGYATADGNSSGSITCLQNGWSAQPICIKFCDMPVFENSRAKSNGMRFKLHDTLDYECYDGYEISYGNTTGSIVCGEDGWSHFPTCYNSSEKCGPPPPISNGDTTSFLLKVYVPQSRVEYQCQSYYELQGSNYVTCSNGEWSEPPRCIHPCIITEENMNKNNIQLKGKSDIKYYAKTGDTIEFMCKLGYNANTSVLSFQAVCREGIVEYPRCE
As for B1, the Kd was found to be 1100 nM.
